Common to all, as to assay: cell-based or functional assay
The target of one assay is human GLP-1 receptor (human, UniProt P43220 24-463).
Another assay concerns the target human glucagon receptor (human, UniProt P47871 26-477).
In the next assay the target is T1, human GIP receptor (human, UniProt P48546 22-466).
T1 sequence (looked up): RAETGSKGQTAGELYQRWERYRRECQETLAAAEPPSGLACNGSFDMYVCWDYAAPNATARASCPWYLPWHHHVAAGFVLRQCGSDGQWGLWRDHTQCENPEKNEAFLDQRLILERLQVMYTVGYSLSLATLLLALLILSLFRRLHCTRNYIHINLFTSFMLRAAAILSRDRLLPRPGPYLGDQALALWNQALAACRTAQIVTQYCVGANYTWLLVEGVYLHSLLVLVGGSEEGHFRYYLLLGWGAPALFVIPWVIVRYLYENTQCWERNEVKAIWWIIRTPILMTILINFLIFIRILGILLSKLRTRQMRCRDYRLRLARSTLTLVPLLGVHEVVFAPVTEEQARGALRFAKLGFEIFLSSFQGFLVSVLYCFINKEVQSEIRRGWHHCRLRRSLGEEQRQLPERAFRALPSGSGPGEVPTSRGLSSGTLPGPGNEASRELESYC

Here are results for six molecules from patent US20180155407A1 (Sanofi, published 2018).

Numbered stars: 1 amine (or outer) side, 2 acyl side, 3 side chain; on linkers, the order of the positions; unused ones are H or OH. Square brackets hold non-standard residues; d marks the D form. Side chains are listed from the residue outwards. Ends that are not written are not given here. * marks the point of attachment. γGlu = O=C(O)[C@H](CCC(=O)[*:2])N[*:1]; Stearoyl = CCCCCCCCCCCCCCCCCC(=O)*; Palmitoyl = CCCCCCCCCCCCCCCC(=O)*; AEEA = NCCOCCOCC(=O)O; Aib = CC(C)(N)C(=O)O

Sequence of human glucagon receptor (P47871 26-477): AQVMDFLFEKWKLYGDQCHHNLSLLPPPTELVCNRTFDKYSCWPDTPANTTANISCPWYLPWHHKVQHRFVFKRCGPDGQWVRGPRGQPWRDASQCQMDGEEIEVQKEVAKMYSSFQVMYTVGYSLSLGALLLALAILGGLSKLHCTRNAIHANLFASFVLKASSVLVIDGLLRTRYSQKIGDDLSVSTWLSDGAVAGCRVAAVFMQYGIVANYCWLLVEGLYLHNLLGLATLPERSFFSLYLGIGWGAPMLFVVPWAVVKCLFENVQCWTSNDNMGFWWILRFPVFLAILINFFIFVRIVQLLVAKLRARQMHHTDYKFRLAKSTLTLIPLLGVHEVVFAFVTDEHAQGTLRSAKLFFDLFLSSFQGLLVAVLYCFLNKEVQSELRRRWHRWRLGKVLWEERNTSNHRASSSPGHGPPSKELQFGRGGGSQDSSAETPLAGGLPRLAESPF

B1: SEQ ID NO: 6 (peptide)
peptide: H[Aib]QGTFTSDLSKLK([γGlu-γGlu-Palmitoyl])EKQRQ[Aib]EFIEWLKAGGPPS[Aib]KPPPK-NH2
modifications: N-terminus assumed
SMILES: CCCCCCCCCCCCCCCC(=O)N[C@@H](CCC(=O)N[C@@H](CCC(=O)NCCCC[C@H](NC(=O)[C@H](CC(C)C)NC(=O)[C@H](CCCCN)NC(=O)[C@H](CO)NC(=O)[C@H](CC(C)C)NC(=O)[C@H](CC(=O)O)NC(=O)[C@H](CO)NC(=O)[C@@H](NC(=O)[C@H](Cc1ccccc1)NC(=O)[C@@H](NC(=O)CNC(=O)[C@H](CCC(N)=O)NC(=O)C(C)(C)NC(=O)[C@@H](N)Cc1c[nH]cn1)[C@@H](C)O)[C@@H](C)O)C(=O)N[C@@H](CCC(=O)O)C(=O)N[C@@H](CCCCN)C(=O)N[C@@H](CCC(N)=O)C(=O)N[C@@H](CCCNC(=N)N)C(=O)N[C@@H](CCC(N)=O)C(=O)NC(C)(C)C(=O)N[C@@H](CCC(=O)O)C(=O)N[C@@H](Cc1ccccc1)C(=O)N[C@H](C(=O)N[C@@H](CCC(=O)O)C(=O)N[C@@H](Cc1c[nH]c2ccccc12)C(=O)N[C@@H](CC(C)C)C(=O)N[C@@H](CCCCN)C(=O)N[C@@H](C)C(=O)NCC(=O)NCC(=O)N1CCC[C@H]1C(=O)N1CCC[C@H]1C(=O)N[C@@H](CO)C(=O)NC(C)(C)C(=O)N[C@@H](CCCCN)C(=O)N1CCC[C@H]1C(=O)N1CCC[C@H]1C(=O)N1CCC[C@H]1C(=O)N[C@@H](CCCCN)C(N)=O)[C@@H](C)CC)C(=O)O)C(=O)O
In the case of B1, the “EC50 hGLP-1R (cAMP formation)” value with human GLP-1 receptor is 0.0028 nM. Further, the “EC50 hGlucagon R (cAMP formation)” value with human glucagon receptor was 0.0164 nM. The “EC50 hGIP R (cAMP formation)” value in the assay with human GIP receptor was 0.0079 nM.

B2: SEQ ID NO: 15 (peptide)
peptide: H[Aib]QGTFTSDLSKLK([γGlu-Stearoyl])EKQRQ[Aib]EFIEWLKAGGPPS[Aib]KPPPK-NH2
modifications: N-terminus assumed
SMILES: CCCCCCCCCCCCCCCCCC(=O)N[C@@H](CCC(=O)NCCCC[C@H](NC(=O)[C@H](CC(C)C)NC(=O)[C@H](CCCCN)NC(=O)[C@H](CO)NC(=O)[C@H](CC(C)C)NC(=O)[C@H](CC(=O)O)NC(=O)[C@H](CO)NC(=O)[C@@H](NC(=O)[C@H](Cc1ccccc1)NC(=O)[C@@H](NC(=O)CNC(=O)[C@H](CCC(N)=O)NC(=O)C(C)(C)NC(=O)[C@@H](N)Cc1c[nH]cn1)[C@@H](C)O)[C@@H](C)O)C(=O)N[C@@H](CCC(=O)O)C(=O)N[C@@H](CCCCN)C(=O)N[C@@H](CCC(N)=O)C(=O)N[C@@H](CCCNC(=N)N)C(=O)N[C@@H](CCC(N)=O)C(=O)NC(C)(C)C(=O)N[C@@H](CCC(=O)O)C(=O)N[C@@H](Cc1ccccc1)C(=O)N[C@H](C(=O)N[C@@H](CCC(=O)O)C(=O)N[C@@H](Cc1c[nH]c2ccccc12)C(=O)N[C@@H](CC(C)C)C(=O)N[C@@H](CCCCN)C(=O)N[C@@H](C)C(=O)NCC(=O)NCC(=O)N1CCC[C@H]1C(=O)N1CCC[C@H]1C(=O)N[C@@H](CO)C(=O)NC(C)(C)C(=O)N[C@@H](CCCCN)C(=O)N1CCC[C@H]1C(=O)N1CCC[C@H]1C(=O)N1CCC[C@H]1C(=O)N[C@@H](CCCCN)C(N)=O)[C@@H](C)CC)C(=O)O
For the molecule B2, the “EC50 hGLP-1R (cAMP formation)” value in the assay with human GLP-1 receptor was determined as 0.0057 nM. The “EC50 hGlucagon R (cAMP formation)” value with human glucagon receptor was 0.0156 nM. Besides, the “EC50 hGIP R (cAMP formation)” value in the assay with human GIP receptor stood at 0.0261 nM.

B3: SEQ ID NO: 17 (peptide)
peptide: H[Aib]QGTFTSDLSKLK([γGlu-γGlu-AEEA-Palmitoyl])EKQRQ[Aib]EFIEWLKA[dA]GHPS[Aib]KPPPK-NH2
modifications: N-terminus assumed
SMILES: CCCCCCCCCCCCCCCC(=O)NCCOCCOCC(=O)N[C@@H](CCC(=O)N[C@@H](CCC(=O)NCCCC[C@H](NC(=O)[C@H](CC(C)C)NC(=O)[C@H](CCCCN)NC(=O)[C@H](CO)NC(=O)[C@H](CC(C)C)NC(=O)[C@H](CC(=O)O)NC(=O)[C@H](CO)NC(=O)[C@@H](NC(=O)[C@H](Cc1ccccc1)NC(=O)[C@@H](NC(=O)CNC(=O)[C@H](CCC(N)=O)NC(=O)C(C)(C)NC(=O)[C@@H](N)Cc1c[nH]cn1)[C@@H](C)O)[C@@H](C)O)C(=O)N[C@@H](CCC(=O)O)C(=O)N[C@@H](CCCCN)C(=O)N[C@@H](CCC(N)=O)C(=O)N[C@@H](CCCNC(=N)N)C(=O)N[C@@H](CCC(N)=O)C(=O)NC(C)(C)C(=O)N[C@@H](CCC(=O)O)C(=O)N[C@@H](Cc1ccccc1)C(=O)N[C@H](C(=O)N[C@@H](CCC(=O)O)C(=O)N[C@@H](Cc1c[nH]c2ccccc12)C(=O)N[C@@H](CC(C)C)C(=O)N[C@@H](CCCCN)C(=O)N[C@@H](C)C(=O)N[C@H](C)C(=O)NCC(=O)N[C@@H](Cc1c[nH]cn1)C(=O)N1CCC[C@H]1C(=O)N[C@@H](CO)C(=O)NC(C)(C)C(=O)N[C@@H](CCCCN)C(=O)N1CCC[C@H]1C(=O)N1CCC[C@H]1C(=O)N1CCC[C@H]1C(=O)N[C@@H](CCCCN)C(N)=O)[C@@H](C)CC)C(=O)O)C(=O)O
Regarding B3, the “EC50 hGLP-1R (cAMP formation)” value in the assay with human GLP-1 receptor stood at 0.0018 nM. In addition, the “EC50 hGlucagon R (cAMP formation)” value with human glucagon receptor came to 0.022 nM. Besides, in the assay with human GIP receptor, the “EC50 hGIP R (cAMP formation)” value came out at 0.0114 nM.

B4: SEQ ID NO: 14 (peptide)
peptide: H[Aib]QGTFTSDLSKLK([γGlu-Palmitoyl])EKQRQ[Aib]EFIEWLKAGGPPS[Aib]KPPPK-NH2
modifications: N-terminus assumed
SMILES: CCCCCCCCCCCCCCCC(=O)N[C@@H](CCC(=O)NCCCC[C@H](NC(=O)[C@H](CC(C)C)NC(=O)[C@H](CCCCN)NC(=O)[C@H](CO)NC(=O)[C@H](CC(C)C)NC(=O)[C@H](CC(=O)O)NC(=O)[C@H](CO)NC(=O)[C@@H](NC(=O)[C@H](Cc1ccccc1)NC(=O)[C@@H](NC(=O)CNC(=O)[C@H](CCC(N)=O)NC(=O)C(C)(C)NC(=O)[C@@H](N)Cc1c[nH]cn1)[C@@H](C)O)[C@@H](C)O)C(=O)N[C@@H](CCC(=O)O)C(=O)N[C@@H](CCCCN)C(=O)N[C@@H](CCC(N)=O)C(=O)N[C@@H](CCCNC(=N)N)C(=O)N[C@@H](CCC(N)=O)C(=O)NC(C)(C)C(=O)N[C@@H](CCC(=O)O)C(=O)N[C@@H](Cc1ccccc1)C(=O)N[C@H](C(=O)N[C@@H](CCC(=O)O)C(=O)N[C@@H](Cc1c[nH]c2ccccc12)C(=O)N[C@@H](CC(C)C)C(=O)N[C@@H](CCCCN)C(=O)N[C@@H](C)C(=O)NCC(=O)NCC(=O)N1CCC[C@H]1C(=O)N1CCC[C@H]1C(=O)N[C@@H](CO)C(=O)NC(C)(C)C(=O)N[C@@H](CCCCN)C(=O)N1CCC[C@H]1C(=O)N1CCC[C@H]1C(=O)N1CCC[C@H]1C(=O)N[C@@H](CCCCN)C(N)=O)[C@@H](C)CC)C(=O)O
On to B4, for which the “EC50 hGLP-1R (cAMP formation)” value with human GLP-1 receptor is 0.0057 nM. The “EC50 hGlucagon R (cAMP formation)” value in the assay with human glucagon receptor amounted to 0.0316 nM. The “EC50 hGIP R (cAMP formation)” value with human GIP receptor amounted to 0.0182 nM.

B5: SEQ ID NO: 13 (peptide)
peptide: H[Aib]QGTFTSDLSKLK([γGlu-γGlu-Palmitoyl])EKQRQ[Aib]EFIEWLKA[dA]GHPS[Aib]KPPPK-NH2
modifications: N-terminus assumed
SMILES: CCCCCCCCCCCCCCCC(=O)N[C@@H](CCC(=O)N[C@@H](CCC(=O)NCCCC[C@H](NC(=O)[C@H](CC(C)C)NC(=O)[C@H](CCCCN)NC(=O)[C@H](CO)NC(=O)[C@H](CC(C)C)NC(=O)[C@H](CC(=O)O)NC(=O)[C@H](CO)NC(=O)[C@@H](NC(=O)[C@H](Cc1ccccc1)NC(=O)[C@@H](NC(=O)CNC(=O)[C@H](CCC(N)=O)NC(=O)C(C)(C)NC(=O)[C@@H](N)Cc1c[nH]cn1)[C@@H](C)O)[C@@H](C)O)C(=O)N[C@@H](CCC(=O)O)C(=O)N[C@@H](CCCCN)C(=O)N[C@@H](CCC(N)=O)C(=O)N[C@@H](CCCNC(=N)N)C(=O)N[C@@H](CCC(N)=O)C(=O)NC(C)(C)C(=O)N[C@@H](CCC(=O)O)C(=O)N[C@@H](Cc1ccccc1)C(=O)N[C@H](C(=O)N[C@@H](CCC(=O)O)C(=O)N[C@@H](Cc1c[nH]c2ccccc12)C(=O)N[C@@H](CC(C)C)C(=O)N[C@@H](CCCCN)C(=O)N[C@@H](C)C(=O)N[C@H](C)C(=O)NCC(=O)N[C@@H](Cc1c[nH]cn1)C(=O)N1CCC[C@H]1C(=O)N[C@@H](CO)C(=O)NC(C)(C)C(=O)N[C@@H](CCCCN)C(=O)N1CCC[C@H]1C(=O)N1CCC[C@H]1C(=O)N1CCC[C@H]1C(=O)N[C@@H](CCCCN)C(N)=O)[C@@H](C)CC)C(=O)O)C(=O)O
On to B5, for which the “EC50 hGLP-1R (cAMP formation)” value with human GLP-1 receptor amounted to 0.0038 nM. For the same molecule, the “EC50 hGlucagon R (cAMP formation)” value with human glucagon receptor was found to be 0.0258 nM. Also, in the assay with human GIP receptor, the “EC50 hGIP R (cAMP formation)” value came out at 0.0204 nM.

B6: SEQ ID NO: 16 (peptide)
peptide: H[Aib]QGTFTSDLSKLK([γGlu-γGlu-AEEA-Palmitoyl])EKQRQ[Aib]EFIEWLKAGGHPS[Aib]KPPPK-NH2
modifications: N-terminus assumed
SMILES: CCCCCCCCCCCCCCCC(=O)NCCOCCOCC(=O)N[C@@H](CCC(=O)N[C@@H](CCC(=O)NCCCC[C@H](NC(=O)[C@H](CC(C)C)NC(=O)[C@H](CCCCN)NC(=O)[C@H](CO)NC(=O)[C@H](CC(C)C)NC(=O)[C@H](CC(=O)O)NC(=O)[C@H](CO)NC(=O)[C@@H](NC(=O)[C@H](Cc1ccccc1)NC(=O)[C@@H](NC(=O)CNC(=O)[C@H](CCC(N)=O)NC(=O)C(C)(C)NC(=O)[C@@H](N)Cc1c[nH]cn1)[C@@H](C)O)[C@@H](C)O)C(=O)N[C@@H](CCC(=O)O)C(=O)N[C@@H](CCCCN)C(=O)N[C@@H](CCC(N)=O)C(=O)N[C@@H](CCCNC(=N)N)C(=O)N[C@@H](CCC(N)=O)C(=O)NC(C)(C)C(=O)N[C@@H](CCC(=O)O)C(=O)N[C@@H](Cc1ccccc1)C(=O)N[C@H](C(=O)N[C@@H](CCC(=O)O)C(=O)N[C@@H](Cc1c[nH]c2ccccc12)C(=O)N[C@@H](CC(C)C)C(=O)N[C@@H](CCCCN)C(=O)N[C@@H](C)C(=O)NCC(=O)NCC(=O)N[C@@H](Cc1c[nH]cn1)C(=O)N1CCC[C@H]1C(=O)N[C@@H](CO)C(=O)NC(C)(C)C(=O)N[C@@H](CCCCN)C(=O)N1CCC[C@H]1C(=O)N1CCC[C@H]1C(=O)N1CCC[C@H]1C(=O)N[C@@H](CCCCN)C(N)=O)[C@@H](C)CC)C(=O)O)C(=O)O
On to B6, for which the “EC50 hGLP-1R (cAMP formation)” value with human GLP-1 receptor came to 0.0013 nM. Further, the “EC50 hGlucagon R (cAMP formation)” value with human glucagon receptor came to 0.0186 nM. The “EC50 hGIP R (cAMP formation)” value in the assay with human GIP receptor stood at 0.0075 nM.
